[ ]: non-standard residue; d: D form. Fluos = fluorescein label; Ahx = NCCCCCC(=O)O

The test addresses T1, macrophage migration-inhibitory factor (MIF), recombinant human, unlabelled (human, UniProt P14174 1-115).
T1 construct: human MIF; For some biophysical methods a 90-95% pure preparation was used; also called WT-MIF; human MIF
T1 sequence (looked up): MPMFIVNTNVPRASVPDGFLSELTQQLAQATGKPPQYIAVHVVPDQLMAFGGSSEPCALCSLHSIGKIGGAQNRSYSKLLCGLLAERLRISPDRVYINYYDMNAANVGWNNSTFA
As to the kind of experiment: other fluorescence titration; Fluos-labelled CXCR4 ectodomain peptide at 5 nM titrated with unlabelled MIF, MIF(10xAla), CXCL12 or MIF peptide fragments; 10 mM sodium phosphate, pH 7.4, 1% HFIP; emission at 522 nm; apparent KD, 1/1 binding model. Particulars: both partners purified.

B1: Fluos-[A^102, A^103, A^104, A^107, A^189, A^190, A^195]-msR4M-L1 (designed binder)
chain: Fluos-DAVANAAAGNALCK[Ahx][Ado]DRYICDRAAPNDLAV-NH2
modifications: cysteine pairing not given here
notes: The functional assays used the unlabelled peptide; also called Fluos-msR4M-L1(7xAla); source: synthetic peptide (Fmoc SPPS on Rink amide MBHA resin, RP-HPLC purified)
For the molecule B1, the Kd was over 1000 nM.

These data come from paper PMC7689490 (Nature Communications, 2020).
